Source: article PMC4871238

Molecular target: native Dictyostelium discoideum pre-60S ribosomal subunit (Dictyostelium discoideum) (UniProt P34113)
Test: cryo-EM structure

Chain of Dictyostelium discoideum eIF6 (eukaryotic initiation factor 6), endogenous (Q551M2 whole entry): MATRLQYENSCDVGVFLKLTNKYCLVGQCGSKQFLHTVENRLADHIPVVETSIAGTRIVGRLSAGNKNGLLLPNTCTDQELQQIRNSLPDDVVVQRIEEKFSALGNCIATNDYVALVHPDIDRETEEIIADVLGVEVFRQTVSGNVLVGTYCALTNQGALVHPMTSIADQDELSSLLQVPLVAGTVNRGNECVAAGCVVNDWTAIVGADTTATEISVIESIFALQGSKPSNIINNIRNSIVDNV
Chain of native Dictyostelium discoideum pre-60S ribosomal subunit (Dictyostelium discoideum) (P34113 whole entry, looked up, tested part not stated): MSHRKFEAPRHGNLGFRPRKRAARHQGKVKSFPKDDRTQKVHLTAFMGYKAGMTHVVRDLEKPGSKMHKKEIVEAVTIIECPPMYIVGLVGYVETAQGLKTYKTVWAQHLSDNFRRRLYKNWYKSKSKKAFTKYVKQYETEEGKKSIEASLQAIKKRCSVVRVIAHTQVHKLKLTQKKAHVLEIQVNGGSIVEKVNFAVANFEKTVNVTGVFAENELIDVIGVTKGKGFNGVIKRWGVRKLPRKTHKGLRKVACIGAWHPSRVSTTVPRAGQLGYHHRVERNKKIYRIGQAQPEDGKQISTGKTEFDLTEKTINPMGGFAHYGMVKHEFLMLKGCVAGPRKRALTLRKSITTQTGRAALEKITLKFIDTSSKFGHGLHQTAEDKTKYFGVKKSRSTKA

Substance: Dictyostelium discoideum eIF6 (eukaryotic initiation factor 6), endogenous (from UniProt Q551M2 1-244) (natural protein)
- percent of native pre-60S subunits carrying eIF6: 85%
